The values that follow come from patent publication US20220409742A1, “NUCLEIC ACID NANOPARTICLES, PHARMACEUTICAL COMPOSITION COMPRISING SAME, DRUG COMPRISING DOXORUBICIN AND PREPARATION METHOD THEREFOR” (BAI YAO ZHI DA (BEIJING) NANOBIO TECHNOLOGY CO., LTD., priority 2018, published 2022).

{Biotin} = biotin attached at the strand end; {Cy3} = Cy3 fluorescent dye

One series relates to HepG2 cells. The series is described as follows: Cytotoxicity of RNA nanoparticles in HepG2 cells (CellTiter-Glo). The series is classed as cell-based. Conditions: 200 nM, 72 hours, CTG. The method, then: (1) A RPMI1640+10% FBS+1% PS medium was used to culture HepG2 cells under 37 DEG C. and 5% CO2.
(2) The HepG2 cells were digested by a trypsin, 100 μL of 5000 cells per well was inoculated in a 96-well plate, and cultured overnight under 37 DEG C. and 5% CO2.
(3) Cell supernatant was removed on the second day, a sample to be tested was diluted with the culture medium, 200 nM of RNAh, RNAh-Biotine, RNAh-Dox and Dox were respectively added, 100 μL each was added to the plated cells, and each sample was repeated for 4 times.
(4) After being cultured for 72 hours, 100 μL of a CTG reagent was added to each well, shaking was performed for 2 min, and standing was performed at a room temperature for 10 minutes, and a whole process was performed in the dark.
(5) Finally Soft Max ProS software was used for reading.
In general terms: Cellular ATP, detected with luciferase, serves as a proxy for viable cell number.

The nature of series [1]: Doxorubicin loading rate, physical loading. The series is classed as physicochemical. To be noted: mass ratio doxorubicin:RNA nanoparticles 1:1, 55 DEG C., 3 h. The method, then:
1) enabling a mass ratio of the doxorubicin and the RNA nanoparticles to be 1:1;
2) weighing 0.1 mg of a doxorubicin original drug and dissolving in 50 μL of DMSO, and then adding 300 μL of the PBS and mixing uniformly;
3) enabling RNA particles to be dissolved in 200 μL of the […] treated water, and adding into the doxorubicin-PBS mixed solution, uniformly mixing, and adjusting a pH to be about 7.5;
4) putting the whole solution in a water bath kettle at 55 DEG C., and reacting for 3 h;
5) after the reaction, directly adding 10 times of anhydrous ethanol in volume, and precipitating at 4 DEG C. for 4 h; and
6) washing for 4 times with 10 times of the anhydrous ethanol, and transferring to 1.5 mL of a EP tube. Subsequently, measuring a loading rate, herein the measuring method is the same as above, and a measuring result is that a doxorubicin loading rate is 15.5.

Series [2] is described as follows: Serum stability of RNA nanoparticles, RPMI 1640 with 10% serum, non-denaturing gel. The series is classed as in vitro ADME. To be noted: for RNA quantification result, RNA nanoparticle: RPMI 1640 with 10% serum, 37 DEG C. The method, then: (1) 350 μl of the PBS was absorbed into a RNA nanoparticle sample, and adequately mixed uniformly.
(2) 2 μM of the RNA nanoparticles were incubated in the RPMI 1640 medium containing 10% serum.
(3) After being incubated at 37 DEG C. for 10 min, 1 h, 12 h, and 36 h, samples were taken respectively.
(4) After NanoDrop used for quantification, 200 ng of the RNA nanoparticlesnanoparticle were taken, the same volume of Tris-Glycine SDS sample buffer solution (2×) was added, and adequately mixed uniformly.
(5) A piece of Novex™ 8% Tris-Glycine Mini gel was taken, the samples were loaded in order, a program was set in 200 V, 30 min, and electrophoresis was started.
(6) After the electrophoresis was over, G250 staining was performed, it was placed on a horizontal shaker for 30 min to 1 h, and pictures were taken for imaging.

As for `COc1cccc2c1C(=O)c1c(O)c3c(c(O)c1C2=O)C[C@@](O)(C(=O)CO)C[C@@H]3O[C@H]1C[C@H](N)[C@H](O)[C@H](C)O1` [doxorubicin], the “HepG2 cell proliferation (%) Mean ± SEM (n = 4)” value with HepG2 cells amounted to 39.56%.

B1: RNA nanoparticles: RNA nanoparticles self-assembled in Embodiment 1 from strands SEQ ID NO:52-54, C/U 2′F, 5′Biotin, 5′CY3 (nucleic acid)
chain 1: CGCGCGCCCACCAGCGUUCCGGGCGCCGC
chain 2: GCGGCGCCCGGUUCGCCGCCAGGCGGC
chain 3: GCCGCCAGGCGGCCAUAGCGGUGGGCGCGCG
modifications: chain 1: 2'-fluoro at CU, RNA at AG, 5' {Biotin}, backbone not given here; chain 2: 2'-fluoro at CU, RNA at AG, 5' {Biotin}, backbone not given here; chain 3: 2'-fluoro at CU, RNA at AG, 5' {Cy3}, backbone not given here; three-strand self-assembled RNA nanoparticle
Regarding B1, the doxorubicin loading rate in series [1] turned out to be 15.5. Besides, the “serum stability (non-denaturing gel bands)” value in series [2] (1640 medium of 10% FBS, 10 min, 1 h, 12 h, 36 h at 37 DEG C.) is listed as “relatively stable”. Moreover, the “RNA quantification result, RNA nanoparticle” value in series [2] (incubation 10 min) amounted to 193.5 ng/µL; in series [2] (incubation 1 h) it was 176.0 ng/µL; in series [2] (incubation 12 h) it was 175.5 ng/µL; in series [2] (incubation 36 h), 214.8 ng/µL; in series [2] (incubation time 0) it was 178.8 ng/µL.
